This note sets out measurements from the nanobody polyreactivity screen of Harvey et al. (2022).

The series can be described thus: yeast display, Sf9 membrane polyspecificity reagent, FACS + sequencing; frameworks hold sequencing errors. The procedure, abridged: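 A nanobody's polyreactivity label depends on the gate it was sorted from. Yeast display cells were stained with 10% biotinylated, detergent-solubilized Sf9 membrane reagent for 1 hour at 4 °C, enriched on streptavidin microbeads and sorted by FACS. The low and high (top ~1%) gates were set on anti-HA fluorescence for expression and streptavidin fluorescence for reagent binding.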
Regarding “QVQLVDSGGGLVQAGGSLRLSCAASGFTFVYNVMGWNIQAPGKERELVAAINAGGGSTYYADSVKGRFTISRDNAKNTVYLQMNSLKPEDTAVYYGNARVRVRVGRNWSSYYYWGQGTQVTVSS”, the “polyreactivity (PSR sort gate)” value is “high polyreactivity”.

With “QVQLVDSGGGLVQAGGSLRLSCAASGFTFYANAMGWYRQAPGTERELVAALSRGVSPTYADSVKGRFTISRDNGKNTVYLEMNSLKPEDTAVYYCASDGNVIAQGYDYWGQGTQVTVSS”, the “polyreactivity (PSR sort gate)” value is listed as “low polyreactivity”.

Consider “QVQLVDSGGGLVQAGGSLRLSCAASGGTFDTYAMGWYRQAPGKERELVAVIRASGGDTYYADSVKGRFTISRDNAKNTVYLQMNSLKPEDTAVYYCAAVLPFKYDYWGQGTQVTVSS”, for which the “polyreactivity (PSR sort gate)” value was “low polyreactivity”.

In the case of “QVQLVDSGGGLVQAGGSLRLSCAASGHTLAVNAMGWYRPAPGKERELVAAITSSGGSTSYADSEKGRFTISRDNAKNTVYLQMNSLKPEDTAVYYCAAEQRYPLIILYDYWGQGTQVTVSS”, the “polyreactivity (PSR sort gate)” value is on record as “low polyreactivity”.

Take “QVQLVDSGGGLVQAGGSLRLSCAASGITFGNYAMGWYRQAPGKERELVASISWNVGSTYYADSVKGRFTISRDNAKNTVYLQMNSLKPEDTAVYYCARGYDRPRVATFHRFDYWGQGTQVTVSS”: the “polyreactivity (PSR sort gate)” value is listed as “low polyreactivity”.

With “QVQLVDSGGGLVQAGGSLRLSCAASGITFRGYAMGWYRQSPGKERELVATITSSGGSTYYADSVKGRFTISRDNAKNTVYLQMNSLKPEDTAVYYCAAVPYTRYSSSRGYWGQGTQVTVSS”, the “polyreactivity (PSR sort gate)” value is “high polyreactivity”.

With “QVQLVDSGGGLVQAGGSLRLSCAASGITFWDNVMGWYRQATGKERELVATITYRGGSTYADSVKGRFTISRDNAKITVFLQMNSVKPEDTAVYYCNTGVTVDILSYDSWGQGTQVTVSS”, the “polyreactivity (PSR sort gate)” value was “low polyreactivity”.

For the sequence “QVQLVDSGGGLVQAGGSLRLSCAASGLTFKRYAMGWYRQAPGKERQLVASITGNGGSSYYADSVKGRFTISRDNAKNTVYLQMNSLKPEDTAVYYCNARRYVRTSQQPLYDYWGQGTQVTVSS”, the “polyreactivity (PSR sort gate)” value is “high polyreactivity”.

As for “QVQLVDSGGGLVQAGGSLRLSCAASGNIFWENTMGSYRQAPGKERELVASISNTGTTNYADSVKGRFTISRDNAKNTVYLQMNSLKPEDTAVYDCNTDLWIDTASPAPNDDDYWGQGTQVTVSS”, the “polyreactivity (PSR sort gate)” value is reported as “low polyreactivity”.

Consider “QVQLVDSGGGLVQAGGSLRLSCAASGNTIGRNAMGWYRQAPGKEWELVAAISFSGSRTYYADSVKGRFTISRDNAKNSVYLQMNILKPEDTAVYNFIAPEGRKPYDSWVQGTQVTVSS”, for which the “polyreactivity (PSR sort gate)” value is “low polyreactivity”.

Consider “QVQLVDSGGGLVQAGGSLRLSCAASGRIFAWYAMGWYRQAPGKERELVAAISSGGSTNYADSVKGRFTISRDNAKNTVYLQMNSLKPEDTAVYYCNRYPVRDTGGYWGQGTQVTVSS”, for which the “polyreactivity (PSR sort gate)” value was “low polyreactivity”.

Turning to “QVQLVDSGGGLVQAGGSLRLSCAASGRIFEGDAMGWYIQAPGKESDLVASISYDGGSTYYADSVKGRFTISRDNENITVELQMNSLKPEDTAVYYCAAVYRRRSYSFYYWGQGTQVTVSS”, the “polyreactivity (PSR sort gate)” value is on record as “high polyreactivity”.

Regarding “QVQLVDSGGGLVQAGGSLRLSCAASGRIFNWYAMGWYRQAPGKERELVARITWCDGGTYYADSVKGRFTISRDNAKNTVSLQMNSLKPDDTAVYYCAKQWKSYYALDYWGQGTQVTVSS”, the “polyreactivity (PSR sort gate)” value is given as “high polyreactivity”.

Regarding “QVQLVDSGGGLVQAGGSLRLSCAASGRIFPRNAMGWYRQAPGKERELVATIRSSTYYADSVKGRFTISRDNAKNTVYLQMNSLKPEDTAVYYCNVRLSYSYISPSDWNFDYWGQGTQVTVSS”, the “polyreactivity (PSR sort gate)” value is given as “low polyreactivity”.

“QVQLVDSGGGLVQAGGSLRLSCAASGRIFPVYAMAWYRHAPGKEREMVAAITKSGGNTYYADSVKGRFTISRDNAKYTVYLQMNSMKPEDTAVYYCAADSSAKMGPQYYYALDYWGQGTKVTVSS”: the “polyreactivity (PSR sort gate)” value is “low polyreactivity”.

Turning to “QVQLVDSGGGLVQAGGSLRLSCAASGRIFPYYTMGCYRQAPGKETEFVAAISSSSVSTYYADSVKGRFTISRDNAKNTVYLQMNSLKAEDTAVYYCAAKRVGYHIGYVYPYGYWGQGTQVTVSS”, the “polyreactivity (PSR sort gate)” value was “high polyreactivity”.

For the sequence “QVQLVDSGGGLVQAGGSLRLSCAASGRIFRGYAMGWYRQAPGKERELVAAITSGGITNYADSVKGRFTISRDNAKNTVYLQMNRLKPEDTAVYYCNTRRGWRDFDYWGQGTQVTVSS”, the “polyreactivity (PSR sort gate)” value was “low polyreactivity”.

On to “QVQLVDSGGGLVQAGGSLRLSCAASGRIFSWYTMGWYRQAPGKERELVAVITSGGTTKYADSVKGRFTISRDNAKNTVYLQMNSLKPEDTAVYYCNGAGRDYAVRWGSFDYWGQGTQVTVSS”, for which the “polyreactivity (PSR sort gate)” value was “low polyreactivity”.

Take “QVQLVDSGGGLVQAGGSLRLSCAASGRIFYRYALGWYRQAPGKERELVAAITRGGRTNYADSVKGRFTISRDNAQNTVYLQMNSLKPEDTAVYYCRPLWYGFDYWGQGTQVTVSS”: the “polyreactivity (PSR sort gate)” value was “high polyreactivity”.

With “QVQLVDSGGGLVQAGGSLRLSCAASGRTFGSYAMGWSRQAPGKERELVAAISSSGGRTYYADSVKGRFTISRDNAKNTVYLQLNSLKPEDTAVYYCNARWRFLYDYWGQGTQVTVSS”, the “polyreactivity (PSR sort gate)” value is recorded as “high polyreactivity”.

Take “QVQLVDSGGGLVQAGGSLRLSCAASGRTFSYYGMGWYRQAPGQERELVACIRRRGGSTYYADSVKGRFTISRDNAKNNVSLQMNSLNPEDTAVYYCTAATYGDYSNLGYGYWGQGTQVTVSS”: the “polyreactivity (PSR sort gate)” value is “high polyreactivity”.

“QVQLVDSGGGLVQAGGSLRLSCAASGRTFVSYAMGWYRQAPGKERELVAAISRSGGRTYYADSVKGRFTISRDNAMNSVYLQMNCLKPEDTAVYYCATKQYGTLARYDYWGQGSQVTVSS”: the “polyreactivity (PSR sort gate)” value is given as “high polyreactivity”.

For the sequence “QVQLVDSGGGLVQAGGSLRLSCAASGRTFYSYAMGWYRQAPGKERELVSAISRNGGSTYYADSVKGRFTISRDNAKNSVYLQMNSLKPEDTAVYYCAAKRAGPYGISKGMDYWGQGTQVTVSS”, the “polyreactivity (PSR sort gate)” value was “high polyreactivity”.

Regarding “QVQLVDSGGGLVQAGGSLRLSCAASGRTFYYYAMGWSRQEPGKEREFDADISGRGGTTYYADSVKGRFTISRDNAKKTVYLLMNSLKPEDTAVYYCAARSVSTLRYTSRKLRYDYWGQGTQVSVSS”, the “polyreactivity (PSR sort gate)” value is listed as “high polyreactivity”.

Take “QVQLVDSGGGLVQAGGSLRLSCAASGRTFYYYAMGWYRQAPGKERELVADIRGRGGSTYYADSVKGRFTISRDNAKNTVYLQMNSLKPEDTAVYYCARRSPNPYSIYYYWGQGTQVTVSS”: the “polyreactivity (PSR sort gate)” value is recorded as “high polyreactivity”.

Consider “QVQLVDSGGGLVQAGGSLRLSCAASGRTLWYYTMGWYRQAPGKERELVADITRGTSTNYADSVKVRFTISRDNAKNTVYLQMNSLKPEDTAVYYCNRAHGRSRYSRDYDSWGQGTQVTVSS”, for which the “polyreactivity (PSR sort gate)” value is on record as “low polyreactivity”.

“QVQLVDSGGGLVQAGGSLRLSCAASGSIFKRNAMGWYRQAPGKERELVATISSRGGSTYYADSVKGRFTISRDNAKNTVYLQMNSLKPEDTAVYYCSARGYQITGNYYTPTSKYNYWGQGTQVTVSS”: the “polyreactivity (PSR sort gate)” value is on record as “high polyreactivity”.

With “QVQLVDSGGGLVQAGGSLRLSCAASGSIFPPYAMGWYRQAPGKERELVARISWSTSSTNYADSVKGRFTISRDNAKNTVYLQMNSLKPEVTAVYYCAADYYVFPGYDYWGQGTQVTVSS”, the “polyreactivity (PSR sort gate)” value is listed as “high polyreactivity”.

With “QVQLVDSGGGLVQAGGSLRLSCAASGSIFRPYARGWYRQAPWKERELVASIRWYDGSTYYADSVKGRFTSSRDNAMNTVYLQMNSLKPEDSAVYYCAADYYSQLAGIFDYWGQGTQVTVSS”, the “polyreactivity (PSR sort gate)” value is “low polyreactivity”.

“QVQLVDSGGGLVQAGGSLRLSCAASGSIFSSYVRGWYRQAPGKERELVAAITSRGGSTYYADSVKGRFTISRDNAKNTVYLQMNSLKPEDTAVYYCAKGGTLGGYWGQGTQVTVSS”: the “polyreactivity (PSR sort gate)” value is recorded as “high polyreactivity”.
